Target: truncated M1 C-terminal domain ([change], aa 165-252) (influenza/A/FPV/Rostock/34) (UniProt P03487)
Experiment: raster image correlation spectroscopy

Substance: truncated M1 C-terminal domain ([change], aa 165-252) (from UniProt P03487 165-252) (domain or fragment)
- brightness of M1 wt relative to M1-C (fold): 4.3 fold

Reference: article doi:10.1101/369462
